Measured values taken from article doi:10.1101/2021.10.18.464900 (bioRxiv, 2021).

Assays:
[1] = target: T1, soluble RBD of SARS-CoV-2 S protein (REF / Wuhan-1 variant) (SARS-CoV-2, UniProt P0DTC2); assay: SPR
[2] = target: T2, SARS-CoV-2 S protein trimer (Trimer) (SARS-CoV-2, Wuhan/reference, stabilised); assay: SPR
[3] = target: RBD of SARS-CoV-2 S protein, Beta (SA) variant (SARS-CoV-2, Beta (B.1.351, SA), strain); assay: ELISA
[4] = target: T1, soluble RBD of SARS-CoV-2 S protein …; assay: ELISA
[5] = target: RBD of SARS-CoV-2 S protein, Alpha (UK) variant (SARS-CoV-2, Alpha (B.1.1.7, UK) variant, strain); assay: ELISA
[6] = target: T2, SARS-CoV-2 S protein trimer (Trimer); assay: cryo-EM structure
[7] = target: RBD (Wuhan) expressed on the surface of HEK-293T cells (SARS-CoV-2, Wuhan, UniProt P0DTC2); assay: flow cytometry on cells

Row | Binder | fold faster on-rate to RBD than to Trimer [1] | kon [2] | stoichiometry N [6] | other results
1 | IMM20253 (antibody, V domains shown) VH: QVQLVESGGGVVQPGRSLRLSCTASGFTFSTYGMHWVRQAPGKGLEWVAVISYDGSSKHYAESVKGRFTISRDNSNNTLYLQMNRLRAEDTAVYYCARDGQPPGWGNYFDYWGQGTLVTVAS VL: SYVLTQPPSVSVAPGKTARITCGGNGIGSKSVYWYQQKPGQAPEVVVYDDSDRPSGIPERFSGSNSGNTATLTISRVEAGDEADYYCQVWDSSSDPWVFGGGTKLTVL | 19 fold | > 29500 M⁻¹ s⁻¹ |  | percent inhibition of ACE2 binding [3]: ≤ 40%; percent inhibition of ACE2 binding [4]: ≤ 40%; percent inhibition of ACE2 binding [5]: ≤ 40%
2 | IMM20253 Fab (Fab, V domains shown) VH: QVQLVESGGGVVQPGRSLRLSCTASGFTFSTYGMHWVRQAPGKGLEWVAVISYDGSSKHYAESVKGRFTISRDNSNNTLYLQMNRLRAEDTAVYYCARDGQPPGWGNYFDYWGQGTLVTVAS VL: SYVLTQPPSVSVAPGKTARITCGGNGIGSKSVYWYQQKPGQAPEVVVYDDSDRPSGIPERFSGSNSGNTATLTISRVEAGDEADYYCQVWDSSSDPWVFGGGTKLTVL |  |  | 1 Fab:Trimer | 
3 | IMM20190 (antibody, V domains shown) VH: EVQLVESGGGLVQPGGSLRLSCSASGFTVSSNYMSWVRQAPRKGLEWVSVIYAGGSTFYADSVKGRFTISRDNSKNTLLLQMNSLRAEDTAVYYCARDRGGYLDYWGQGTLVTVSS VL: DIQMTQSPSSLSASVGDRVTITCRASQGISNYLAWYQQKPGKVPKLLIYAASTLQSGVPSRFSGSGSGTDFTLTISSLQPEDVATYYCQKYNSAPGLTFGGGTKVEIK |  | > 29500 M⁻¹ s⁻¹ |  | binding result [7]: binds; binding result [1]: binds
4 | IMM20190 Fab (Fab, V domains shown) VH: EVQLVESGGGLVQPGGSLRLSCSASGFTVSSNYMSWVRQAPRKGLEWVSVIYAGGSTFYADSVKGRFTISRDNSKNTLLLQMNSLRAEDTAVYYCARDRGGYLDYWGQGTLVTVSS VL: DIQMTQSPSSLSASVGDRVTITCRASQGISNYLAWYQQKPGKVPKLLIYAASTLQSGVPSRFSGSGSGTDFTLTISSLQPEDVATYYCQKYNSAPGLTFGGGTKVEIK |  |  | 3 Fab:Trimer | 
5 | IMM20184 Fab (Fab, V domains shown) VH: EVQLVESGGGLVQPGGSLRLSCSASGFTFSSFWMSWVRQAPGKGLEWVATIREDGSEKYYVDSVKGRFSISRDNAKNSLYLQMNSLRAEDTAVYYCARSKWLRGSFDYWGQGTLVTVSS VL: NFMLTQPHSVSESPGKTVTISCTRRSGSIASNYVQWYQQRPGSAPTTVIYEDNQRPSGVPDRFSGSIDSSSNSASLTISGLQTEDEADYYCQSYDSSNPPGASWVFGGGTKLTVL |  |  | 3 Fab:Trimer | 
6 | IMM20184 (antibody, V domains shown) VH: EVQLVESGGGLVQPGGSLRLSCSASGFTFSSFWMSWVRQAPGKGLEWVATIREDGSEKYYVDSVKGRFSISRDNAKNSLYLQMNSLRAEDTAVYYCARSKWLRGSFDYWGQGTLVTVSS VL: NFMLTQPHSVSESPGKTVTISCTRRSGSIASNYVQWYQQRPGSAPTTVIYEDNQRPSGVPDRFSGSIDSSSNSASLTISGLQTEDEADYYCQSYDSSNPPGASWVFGGGTKLTVL | 17 fold | > 29500 M⁻¹ s⁻¹ |  | koff [1]: 0.0013 s⁻¹; koff [2]: 0.00023 s⁻¹
